From US20210079063A1 (UNIVERSITY OF CHICAGO, published 2021) come the findings set out here.

Assay [1] deals with T1, yeast small ubiquitin-like modifier (ySUMO) (yeast, UniProt Q12306 1-98 = SUMO, limits assumed).
T1 construct: Target protein of the library selection; Construct not described
Put plainly: yeast surface display: therMonobody on yeast, soluble target titrated 0-2000 nM, mean fluorescence, fit of the 1:1 binding model. From the text: (§1) FIG. 6A-C. therMonobody library designs and generated clones. Amino acid sequences of therMonobodies generated from the loop-only library (a) and the side-and-loop library (b). The locations of diversified residues in the libraries are shown as spheres on the STOTEMP4 structure. “X” denotes a mixture of 30% Tyr, 13% Ser, 10% Gly, 5% Asp, 5% Leu, 5% Pro, 5% Trp and 2.5% each of all pther amino acids except for Cys and Met; “B”, a mixture of Ala, Ser, Thr, Asn, Asp and Tyr; “U”, a mixture of Ser, Thr, Asn and Tyr; “Z”, a mixture of Ala, Glu, Lys and Thr. (c) Binding measurements by yeast surface display of representative therMonobodies for each combination of library and target. The mean fluorescence intensities of yeast cells displaying therMonobodies are plotted as a function of the target concentration. The error indicated are the standard deviations from curve fitting of the 1:1 binding model.

Assay [2] addresses T1, yeast small ubiquitin-like modifier …. Put plainly: yeast surface display titration, KD column of the drawn table [b].
Assay [3] addresses T2, Abl SH2 (UniProt P00519 127-217, limits assumed).
T2 construct: domain: SH2; Target protein of the library selection
T2 sequence (looked up): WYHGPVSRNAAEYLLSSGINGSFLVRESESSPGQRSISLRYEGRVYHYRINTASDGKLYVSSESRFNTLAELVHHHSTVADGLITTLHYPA
Described as above.

The target of assay [4] is T2, Abl SH2. The experiment in a line: yeast surface display: therMonobody on yeast, soluble target titrated 0-1000 nM, mean fluorescence, fit of the 1:1 binding model.
Text: as §1

For assay [5], the target named is T3, maltose-binding protein (MBP) (UniProt P0AEX9 27-396 = MBP). Put plainly: yeast surface display titration, KD column of the drawn table [b].
The target of assay [6] is T3, maltose-binding protein (MBP). Put plainly: yeast surface display titration, KD column of the drawn table [a].
The target is the same in assay [7]. The experiment in a line: yeast surface display: therMonobody on yeast, soluble target titrated 0-1000 nM, mean fluorescence, fit of the 1:1 binding model.
Text: as §1

Assay [8] deals with T2, Abl SH2. The experiment in a line: yeast surface display titration, KD column of the drawn table [a].
Assay [9] addresses T1, yeast small ubiquitin-like modifier …. The description is as above.

T1 sequence (Q12306 1-98 limits assumed): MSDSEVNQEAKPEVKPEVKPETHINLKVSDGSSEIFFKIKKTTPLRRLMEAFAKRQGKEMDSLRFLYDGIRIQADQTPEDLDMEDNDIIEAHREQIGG

B1: SUMOMbS34 (designed binder)
therMonobody (FN3 domain): SSSSVPQIASIASGPETITVKWYDTNASYYYIYYWSGPYYYKKVTITVGNVTSYTIKHLKPGVTYYIQIVPYHVHDWGYYYYPSDIISATPSSS
notes: side-and-loop library clone selected on ySUMO
As usually defined, the Kd is the constant that tells how readily two partners part at equilibrium. As for B1, the dissociation constant (Kd) in assay [1] and in assay [2] was 20 nM each time.

B2: SUMOMbS20 (designed binder)
therMonobody (FN3 domain): SSSSVPQIASIAVGPETITVKWYDTNASYYYIYYWSKHPKKVKIEVGNVTSYTIKHLKPGVTYYIQIVPFISYYDLYYSGDPSDIISATPSSS
notes: as for B1
The molecule B2 displayed a Kd in assay [2] of 95 nM.

B3: AblSH2MbS07 (designed binder)
therMonobody (FN3 domain): SSSSVPQIASIASGPETITVKWYDTNASYYYIYYWSSYPVTEEVEIKVGNVTSYTIKHLKPGVTYYIQIVPGYYSYPYYLSPSDIISATPSSS
notes: side-and-loop library clone selected on Abl SH2
In the assay with Abl SH2 [3], B3 registered a dissociation constant (Kd) of 827 nM.

B4: AblSH2MbS02 (designed binder)
therMonobody (FN3 domain): SSSSVPQIASIASGPETITVKWYDTNASFYYIYYWSTYPVTEEVEIKVGNVTSYTIKHLKPGVTYYIQIVPQYWYLGAGYPSDIISATPSSS
notes: as for B3
B4: the Kd with Abl SH2 [4] and in the assay with Abl SH2 [3] was 13 nM each time.

B5: MBPMbS01 (designed binder)
therMonobody (FN3 domain): SSSSVPQIASIASGPETITVKWYDTNASYYYISYWSADYDSEAVAIAVGNVTSYTIKHLKPGVTYYIQIVPYKANSYYPGYGYPSDIISATPSSS
notes: side-and-loop library clone selected on MBP
In [5], B5 returned a Kd of 33 nM.

B6: MBPMbL17 (designed binder)
therMonobody (FN3 domain): SSSSVPQIASIAVGPETITVKWYRIPHAYYYYITYWSSSSQKVTINVGNVTSYTIKHLKPGVTYYIQIVPYYPSPWYLSYGYPSDIISATPSSS
notes: loop-only library clone selected on MBP
B6 yielded a Kd in assay [6] of 41 nM.

B7: MBPMbS09 (designed binder)
therMonobody (FN3 domain): SSSSVPQIASIASGPETITVKWYDTNASYYYISYWSYSTATVAIAVGNVTSYTIKHLKPGVTYYIQIVPYYGYRPYPSYGYPSDIISATPSSS
notes: as for B5
In the case of B7, the Kd in assay [7] and in assay [5] was 9 nM throughout.

B8: MBPMbS12 (designed binder)
therMonobody (FN3 domain): SSSSVPQIASIASGPETITVKWYDTNASYYYISYWSGQSETVAIEVGNVTSYTIKHLKPGVTYYIQIVPYYPGYYPVHYVPSDIISATPSSS
notes: as for B5
For the molecule B8, in assay [5], the Kd was 484 nM.

B9: AblSH2MbL04 (designed binder)
therMonobody (FN3 domain): SSSSVPQIASIASGPETITVKWYYYSIDVYYYITYWSSSSQKVTINVGPQTSYTIKHLKPGVTYYIQIVPYSFYSDSDYGYYPSDIISATPSSS
notes: loop-only library clone selected on Abl SH2
As for B9, the Kd with Abl SH2 [8] and with Abl SH2 [4] was 78 nM throughout.

B10: SUMOMbL14 (designed binder)
therMonobody (FN3 domain): SSSSVPQIASIASGPETITVKWYDTNASYYYITYWSSSSQKVTINVGSPISYTIKHLKPGVTYYIQIVPYYTIGPDEYYYIPSDIISATPSSS
notes: loop-only library clone selected on ySUMO
B10: the Kd in [1] and in [9] was 44 nM throughout.

B11: MBPMbL08 (designed binder)
therMonobody (FN3 domain): SSSSVPQIASIASGPETITVKWYWSSYYWSPFYYYITYWSSSSQKVTINVGNVTSYTIKHLKPGVTYYIQIVPYWYQYFPRYGYPSDIISATPSSS
notes: as for B6
For B11, the Kd in assay [6] and in assay [7] was 12 nM throughout.

B12: SUMOMbS08 (designed binder)
therMonobody (FN3 domain): SSSSVPQIASIASGPETITVKWYDTNASYYYIYYWSLQYYREAVKIEVGNVTSYTIKHLKPGVTYYIQIVPFEEFGFGWYSGDPSDIISATPSSS
notes: as for B1
On to B12, for which, in assay [2], binding was put at a Kd of 65 nM.
